These results are taken from paper doi:10.1101/459156.

This experiment has as its target Hexahistidine-tagged ALIX protein (UniProt Q8WUM4). Put plainly: MST.
UniProt Q8WUM4, sequence (Q8WUM4 whole entry): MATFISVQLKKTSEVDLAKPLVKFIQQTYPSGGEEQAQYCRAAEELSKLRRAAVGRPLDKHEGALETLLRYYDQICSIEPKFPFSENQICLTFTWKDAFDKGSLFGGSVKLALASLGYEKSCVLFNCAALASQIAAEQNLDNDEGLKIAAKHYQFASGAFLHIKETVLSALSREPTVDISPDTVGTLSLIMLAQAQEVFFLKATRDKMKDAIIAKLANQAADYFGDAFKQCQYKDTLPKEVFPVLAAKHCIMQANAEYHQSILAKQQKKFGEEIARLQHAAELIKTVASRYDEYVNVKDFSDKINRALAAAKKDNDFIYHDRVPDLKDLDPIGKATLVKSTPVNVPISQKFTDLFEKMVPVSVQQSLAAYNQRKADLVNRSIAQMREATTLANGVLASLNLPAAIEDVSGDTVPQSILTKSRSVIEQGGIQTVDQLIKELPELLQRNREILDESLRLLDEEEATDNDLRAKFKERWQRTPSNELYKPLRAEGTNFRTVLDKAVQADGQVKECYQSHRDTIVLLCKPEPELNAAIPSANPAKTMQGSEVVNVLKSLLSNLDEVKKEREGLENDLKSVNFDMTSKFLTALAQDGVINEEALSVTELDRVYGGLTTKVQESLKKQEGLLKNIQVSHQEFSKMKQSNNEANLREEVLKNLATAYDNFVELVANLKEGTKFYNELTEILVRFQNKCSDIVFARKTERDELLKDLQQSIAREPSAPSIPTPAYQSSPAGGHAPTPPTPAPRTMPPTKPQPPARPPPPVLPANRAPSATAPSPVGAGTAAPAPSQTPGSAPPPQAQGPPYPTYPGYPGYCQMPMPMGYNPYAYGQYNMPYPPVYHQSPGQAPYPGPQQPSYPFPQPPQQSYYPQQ

Substance HIV-1BWT Gag late domain motif peptide had an equilibrium dissociation constant (Kd) of 0.032 µM.

As for HIV-1CWT Gag late domain motif peptide, the equilibrium dissociation constant (Kd) amounted to 0.29 µM. Against the preceding substance, the Kd is about 9.1-fold higher.
